Measured values as given in article PMC11610247.

Tests used:
[1] = biological target: SNAP-flag-tagged GLP1R p.R380C (human) (UniProt P43220); assay: AlphaScreen or HTRF
[2] = biological target: SNAP-flag-tagged WT GLP1R (glucagon-like peptide 1 receptor) (human) (UniProt P43220); assay: AlphaScreen or HTRF

Substance | IC50 [1] [nM] | pIC50 [2]
exendin-4 (from UniProt P26349 48-87) (peptide) | 400 | –
exendin-4 (from UniProt P26349 48-87) (peptide; other documents disagree on this pair) | – | 8.13
